Experimental data as given in doi:10.1101/2021.02.07.430097.

Target: Ape4 (full length) of the Ape4-Nbr1 fusion protein (S. pombe)
Assay: cryo-EM structure

stoichiometry N | stoichiometry N (Nbr1-ZZ1 molecules per Ape4 dodecamer) | Molecule
12 |  | Ape4 (full length) of the Ape4-Nbr1 fusion protein (enzyme)
 | 12 | Nbr1(53-129) of the Ape4-Nbr1 fusion protein (domain or fragment) PTLRSSSVACNTCLKIIRNDSFHCTKCFDFDVCRDCYAKQAFLHPCPKPHFVLVRSSIPSVASLTCSVNSMSVSPQS
